Experimental data taken from US9120851B2, “Human antibodies to human angiopoietin-like protein 4” (Regeneron Pharmaceuticals, Inc., priority 2009, dated 2015).
Where a chain is given by its changes, count along the chain named. Blank lines part the entries; values can stand above or below the molecule they belong to.

Legend:
[1] = target: T1, mANGPTL4-His (Mus musculus, UniProt Q9Z1P8); test: BIACORE cross-reactivity, amine coupled mANGPTL4-His; type: binding; conditions: for Specific RU, mANGPTL4-His: chip surface 5233 RU, mAb injected at 3.125-50 μg/mL
T1 sequence (Q9Z1P8 26-410): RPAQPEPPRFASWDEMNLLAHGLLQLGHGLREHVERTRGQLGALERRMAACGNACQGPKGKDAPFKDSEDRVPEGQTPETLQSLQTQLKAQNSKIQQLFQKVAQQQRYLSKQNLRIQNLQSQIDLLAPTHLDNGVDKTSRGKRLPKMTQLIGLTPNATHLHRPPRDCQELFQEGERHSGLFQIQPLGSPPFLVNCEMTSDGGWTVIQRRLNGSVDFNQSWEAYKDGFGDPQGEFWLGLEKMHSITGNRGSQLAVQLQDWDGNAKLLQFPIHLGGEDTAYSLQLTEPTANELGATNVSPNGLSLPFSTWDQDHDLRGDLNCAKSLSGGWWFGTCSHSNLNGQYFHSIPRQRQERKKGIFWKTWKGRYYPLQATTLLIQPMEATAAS
Description: (§1) Possible cross-reactivity of the anti-hANGPTL4 antibodies to related proteins, i.e., hANGPTL3, human angiopoietin-like protein 5 (hANGPTL5) and mouse ANGPTL4 (mANGPTL4), was tested for the selected antibodies, i.e., H1H268P and H1H284P, using the BIACORE™ system. Briefly, anti-hANGPTL4 antibodies as well as negative controls, i.e., two monoclonal antibodies (Control a and Control b) that are non-binders to any ANGPTL proteins, were injected at 3.125 μg/mL-50 μg/mL over amine coupled chip surfaces of hANGPTL3-His (R&D Systems, cat #3829-AN) at 5228 RU, hANGPTL4-His (R&D Systems, cat #4487-AN) at 6247 RU, hANGPTL5-His (Abnova Corp., cat #H00253935-P01) at 5265 RU, and mANGPTL4-His [R26-S410 of mANGPTL4 (SEQ ID NO: 478) fused with an AS linker to a C-terminal 6-histidine tag] at 5233 RU, respectively. A polyclonal antibody specific for hANGPTL3 (R&D System, cat #BAF3485) was also tested.

[2] = target: T2, hANGPTL3-His (Homo sapiens, UniProt Q9Y5C1); test: BIACORE cross-reactivity, amine coupled hANGPTL3-His; type: binding; conditions: for Specific RU, hANGPTL3-His: chip surface 5228 RU, mAb injected at 3.125-50 μg/mL
T2 construct: His; purchased R&D Systems 3829-AN
T2 sequence (Q9Y5C1 17-460): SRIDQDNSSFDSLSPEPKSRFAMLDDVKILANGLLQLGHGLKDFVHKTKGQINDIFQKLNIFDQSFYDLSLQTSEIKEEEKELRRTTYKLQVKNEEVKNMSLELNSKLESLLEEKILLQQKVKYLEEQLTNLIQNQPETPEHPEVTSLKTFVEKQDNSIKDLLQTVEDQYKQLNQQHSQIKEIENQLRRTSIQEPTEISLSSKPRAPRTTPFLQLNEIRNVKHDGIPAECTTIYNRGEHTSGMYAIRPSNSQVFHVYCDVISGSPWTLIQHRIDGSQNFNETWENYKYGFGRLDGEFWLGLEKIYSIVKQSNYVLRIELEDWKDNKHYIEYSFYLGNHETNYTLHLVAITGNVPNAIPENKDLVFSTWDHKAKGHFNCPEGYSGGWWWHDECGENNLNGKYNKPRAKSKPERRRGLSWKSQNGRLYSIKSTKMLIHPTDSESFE
Description: as §1

[3] = target: T3, hANGPTL4 peptide (R34-L66 of SEQ ID NO:476) (Homo sapiens, UniProt Q9BY76); test: BIACORE, hANGPTL4 peptides injected over captured antibody; type: binding; conditions: for ka: 62.5 nM-500 nM
T3 sequence (Q9BY76 34-66 limits assumed): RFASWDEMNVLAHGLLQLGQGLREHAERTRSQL
Description: Further, the binding affinities of H1H268P and H1H284P for various ANGPTL3 and ANGPTL4 peptides were also determined by BIACORE™ system. Briefly, H1H268P (1348±11 RU) and H1H284P (868±13 RU) were captured over anti-human Fc surface and various concentrations (62.5 nM-500 nM) of the hANGPTL3 and hANGPTL4 peptides were injected. The peptides tested were hANGPTL4 (R34-L66 of SEQ ID NO:476), N-terminally biotinylated hANGPTL4 (R34-L66 of SEQ ID NO:476), hANGPTL3 (R36-I68 of SEQ ID NO:485), and N-terminally biotinylated hANGPTL3 (R36-I68 of SEQ ID NO:485). Kinetic analysis was performed to measure ka and kd, and KD values and half-life of antigen/antibody complex dissociation were calculated. NB: No binding under the experimental conditions described.

[4] = system: humanized ANGPTL4×ApoE null mice; test: Serum TG levels in humanized ANGPTL4 x ApoE null mice; type: in vivo, mouse
Description: The effect of H4H268P2 on circulating TG levels was further studied in humanized ANGPTL4 mice crossed to ApoE null mice. The ApoE null mouse model is known as a highly atherogenic and hyperlipidemic model with the majority of cholesterol and TG circulating in VLDL particles due to impaired VLDL remnant clearance. Humanized ANGPTL4×ApoE null mice were pre-bled 7 days before the experiment and put into 2 groups of six mice each. Antibodies H4H268P2 and Control Ab were administered at 10 mg/kg by subcutaneous injection. Mice were bled after 4 hours of fasting on days 1, 4, 7, 11 and 17 after antibody injection and TG levels were determined in the serum by ADVIA® 1800 Chemistry System (Siemens). TG reductions shown in FIG. 4 are expressed as a percent of TG levels compared to Control Ab.

[5] = system: obese rhesus monkeys (Macaca mulatta); test: Phase II pilot PK/PD study in obese rhesus monkeys; type: in vivo, rhesus monkey (Macaca mulatta); conditions: 10 mg/kg IV
Description: Phase II: In the second non-GLP pharmacokinetics/pharmacodynamic (PK/PD) study only H4H268P2 was administered as a single bolus intravenous (IV) injection to eight obese rhesus monkeys (Macaca mulatta). The step of pre-dosing vehicle injection was omitted in this study. Three baseline assessments were taken at days −7, −3 and 0 of the study and all eight monkeys received H4H268P2 at 10 mg/kg by IV on day 0. Serum samples were collected from the baseline period through day 35 post-dosing and assessed for serum lipid levels by ADVIA® 1800 Chemistry System (Siemens). Animals were grouped for data analysis according to average baseline TG levels so as to prospectively predict the effect: A. TG<150 mg/dL (n=3); B. 150 mg/dL<TG<500 mg/dL (n=4); and C. TG>1000 mg/dL (n=1).

[6] = hANGPTL4 peptide (not biotinylated)
[7] = animals with baseline 150 mg/dL<TG<500 mg/dL

binding to mANGPTL4-His (other related ANGPTL protein), in words [1]: did not bind | Specific RU, mANGPTL4-His [1]: 18 RU | binding to hANGPTL3-His (other related ANGPTL protein), in words [2]: did not bind | Specific RU, hANGPTL3-His [2]: −6 RU | binding to the hANGPTL4 peptides, in words ([3]; both peptides, highest peptide concentration tested 500 nM): did not bind
B1: H1H284P: anti-hANGPTL4 antibody, hIgG1 isotype, HCVR/LCVR SEQ ID NOs 90/92 (antibody, V domains shown)
VH: QVQLVESGGGVVQPGRSLRLSCAASGFTFSSYGMHWVRQAPGKGLEWMAVISFDGGNKNNADSVKGRFTISRDNSKNTLYLQMNSLRAEDTAVYYCAKEGDRSGHPYFYYYGLDVWGQGTTVTVS
VL: DIQLTQSPSFLSASVGDRVTITCWASQGISSYLAWYQQKPGKAPKLLIYAASTLQSGVPSRFSGSGSETEFTLTISSLQPEDFATYYCQQLHSYPLTFGGGTKVEIK

binding to mANGPTL4-His (other related ANGPTL protein), in words [1]: did not bind | Specific RU, mANGPTL4-His [1]: −7 RU | binding to hANGPTL3-His (other related ANGPTL protein), in words [2]: did not bind | Specific RU, hANGPTL3-His [2]: −17 RU | kd ([3]; hANGPTL4-Nterm biotin peptide): 0.000294 s⁻¹ | ka ([3]; hANGPTL4-Nterm biotin peptide): 4530 M⁻¹ s⁻¹ | kd [3, 6]: 0.000365 s⁻¹ | ka [3, 6]: 6490 M⁻¹ s⁻¹
B2: H1H268P: anti-hANGPTL4 antibody, hIgG1 isotype, HCVR/LCVR SEQ ID NOs 42/44 (antibody, V domains shown)
VH: QVQLQESGAGLLKPSETLSLTCTVYGGSFSIHHWTWIRHPPGKGLEWIGEINHRGSTNYNPSLKSRVTISIDTSKNQFSLKLSAVTAADTAVYYCARGLRFLDWLSSYFDYWGQGTLVTVSS
VL: DIQMTQSPSSLSASVGDRVTITCRASQGISDYLAWYQQKPGKVPNLLIYAASALQSGVPSRFSGSGSGTDFTLTISSLQPEDVATYYCQNYNTAPLTFGGGTKVEIK

B3: H4H268P2: IgG4 version of H1H268P with a single amino acid substitution in framework region 1, HCVR/LCVR SEQ ID NOs 487/44 (antibody, V domains shown)
VH: B2 VH with E6Q
VL: B2 VL
modifications: IgG4 constant region
TG reduction compared to Control Ab ([4]; all 17 days, 10 mg/kg s.c.): more than 42% | greatest TG reduction compared to Control Ab ([4]; day 7, 10 mg/kg s.c.): ~50% | HDL-C, in words [5, 7]: increased | LDL-C or Total-C, in words [5, 7]: no effect | decrease in TG levels from baseline [5, 7]: 50-68% | response of fasting TG, in words ([5]; animals with baseline TG<150 mg/dL (normal TG levels)): largely unresponsive | TG level, in words ([5]; individual animal with baseline TG >1000 mg/dL): dramatic and rapid drop in TG level
